± gives the uncertainty stated by the source.
B1: Bromodomain adjacent to zinc finger domain protein 2B, residues 1927 to 1982; numbered along this chain, Q9UIF8 (parent)
chain: KSIMKVYCQICRKGDNEELLLLCDGCDKGCHTYCHRPKITTIPDGDWFCPACIAKA

Variants of: B1
Test: abundance fitness (aPCA) (normalised: wild type 0, dead -1); higher = more abundant; growth selection in yeast, the domain comes from the species named
Conditions: Homo sapiens

Abundance fitness, by site and new letter:
I10: Q -0.009 ± 0.11 | V -0.051 ± 0.079 | P -0.479 ± 0.11 | K -0.131 ± 0.13 | Y -0.135 ± 0.2 | N 0.266 ± 0.17 | M -0.047 ± 0.1 | E 0.095 ± 0.087 | G -0.148 ± 0.069 | T -0.01 ± 0.13 | H 0.079 ± 0.18 | F -0.181 ± 0.18 | W -0.03 ± 0.099 | S -0.055 ± 0.078 | C 0.089 ± 0.13 | L 0.004 ± 0.08
Q9: T -0.063 ± 0.092 | M -0.096 ± 0.14 | N -0.041 ± 0.12 | R -0.195 ± 0.063 | V -0.149 ± 0.074 | A -0.108 ± 0.076 | Y 0.029 ± 0.12 | G -0.038 ± 0.059 | C -0.091 ± 0.094 | W -0.203 ± 0.085 | S 0.07 ± 0.072 | K -0.146 ± 0.13 | L -0.103 ± 0.077 | I -0.164 ± 0.11 | D 0.028 ± 0.12 | P 0.004 ± 0.11 | F -0.099 ± 0.15
D15: E 0.113 ± 0.11 | Q -0.238 ± 0.16 | Y -0.452 ± 0.17 | L -0.362 ± 0.12 | C -0.122 ± 0.12 | W -0.279 ± 0.12 | N -0.008 ± 0.17 | P -0.293 ± 0.12 | V -0.06 ± 0.094 | H -0.429 ± 0.2 | T -0.22 ± 0.14 | A -0.234 ± 0.089 | M -0.406 ± 0.21 | I -0.221 ± 0.19 | F -0.118 ± 0.36 | K -0.038 ± 0.16 | R -0.263 ± 0.069 | G -0.099 ± 0.068
C11: L -1.01 ± 0.1 | F -0.961 ± 0.17 | V -1.16 ± 0.099 | P -0.767 ± 0.11 | A -1.03 ± 0.088 | E -0.808 ± 0.12 | H -0.85 ± 0.28 | N -1.04 ± 0.2 | R -0.933 ± 0.081 | T -1.14 ± 0.17 | Q -1.19 ± 0.18 | K -0.887 ± 0.21 | I -0.912 ± 0.15 | D -1.05 ± 0.15 | G -1.1 ± 0.081 | W -1.21 ± 0.14 | S -0.997 ± 0.097 | M -1.08 ± 0.17
Y7: I -0.197 ± 0.18 | R -0.152 ± 0.065 | K -0.147 ± 0.12 | D 0.142 ± 0.099 | G -0.118 ± 0.067 | F -0.086 ± 0.17 | A -0.09 ± 0.073 | E -0.018 ± 0.085 | P -0.179 ± 0.12 | S -0.025 ± 0.078 | H -0.045 ± 0.14 | N 0.057 ± 0.14 | M -0.059 ± 0.097 | L -0.14 ± 0.083 | T -0.102 ± 0.1 | Q -0.043 ± 0.12 | V -0.145 ± 0.071 | C -0.136 ± 0.13
G14: C -0.171 ± 0.13 | K -0.063 ± 0.14 | S 0.032 ± 0.092 | M 0.002 ± 0.15 | I -0.23 ± 0.31 | Q -0.003 ± 0.13 | F -0.127 ± 0.19 | T 0.046 ± 0.12 | P -0.026 ± 0.11 | A 0.011 ± 0.082 | V 0.035 ± 0.08 | Y 0.079 ± 0.18 | E -0.07 ± 0.11 | L -0.056 ± 0.075 | R 0.018 ± 0.068 | H -0.054 ± 0.18 | D -0.056 ± 0.15
C8: L -1.13 ± 0.13 | Q -0.661 ± 0.22 | F -0.978 ± 0.36 | N -1.11 ± 0.33 | E -0.836 ± 0.15 | H -1.02 ± 0.24 | P -0.686 ± 0.17 | G -0.916 ± 0.073 | M -0.807 ± 0.34 | I -1.34 ± 0.43 | A -1.25 ± 0.15 | W -1.17 ± 0.12 | D -1 ± 0.16 | T -0.902 ± 0.19 | R -1.08 ± 0.088 | Y -0.942 ± 0.14 | S -0.944 ± 0.11
R12: F -0.23 ± 0.16 | K 0.043 ± 0.13 | I 0.001 ± 0.15 | M -0.05 ± 0.11 | G -0.055 ± 0.063 | Y -0.183 ± 0.15 | H -0.187 ± 0.14 | A 0.008 ± 0.073 | C -0.163 ± 0.12 | T -0.028 ± 0.1 | D -0.021 ± 0.1 | S 0.042 ± 0.09 | P -0.89 ± 0.17 | W -0.256 ± 0.11 | V -0.079 ± 0.065 | E 0.008 ± 0.097 | Q -0.041 ± 0.14
K13: D -0.047 ± 0.12 | Q -0.111 ± 0.099 | N -0.102 ± 0.13 | V -0.138 ± 0.081 | W -0.25 ± 0.091 | S -0.11 ± 0.089 | I -0.136 ± 0.2 | P -0.512 ± 0.1 | M -0.002 ± 0.13 | A -0.032 ± 0.074 | Y -0.271 ± 0.14 | T -0.164 ± 0.092 | H -0.076 ± 0.12 | E -0.045 ± 0.12 | F -0.24 ± 0.16 | R -0.177 ± 0.069 | G -0.047 ± 0.078
V6: H -0.036 ± 0.2 | K 0.117 ± 0.16 | R 0.036 ± 0.064 | I -0.068 ± 0.13 | M -0.064 ± 0.11 | T -0.028 ± 0.098 | S 0.014 ± 0.092 | Y 0.171 ± 0.2 | N -0.124 ± 0.27 | P -0.143 ± 0.11 | L -0.076 ± 0.077 | Q -0.043 ± 0.11

Source: the Human Domainome abundance scans (Beltran et al. 2025)
